# doi:10.1101/2021.02.07.430097, “Molecular and structural mechanisms of ZZ domain-mediated cargo recognition by autophagy receptor Nbr1” (bioRxiv, 2021)
# B1: Ams1 (full length) of the Ams1-Nbr1 fusion protein (enzyme, S. pombe, UniProt Q9UT61 2-1077, looked up)
# chain: TLFPVLNNTPVGKQVDSIYESRLDQFLSEGQYRDFNLPSVYDHARIDNPSGDVNNDLSKGFVDLKVYRVPDLSRPSFNEVVGHKKFDETASKGDTFGPSWATFWFEVHIRLPKSWAKYEQVIFQWNCDNEGLVYSQDGVPLQAFSGSERTDFILPDSWKTTEDTFYIEMACNGMFGTGAGSQIAPPDPNRYFTLTKADLVAPNLPAMALAYDFLLMQQCVKQLPSNCWQKYKARQICNDIMNTFHPNDLSTINECRNLAKAFLGNDIDSEAVFEKNNDKANVFAIGHCHIDTAWLWPFAETRRKIVRSWATQMNIMDRYPEYQFVCSQALQYLWLKEDHPDVFEKLKEYVNQNKFIPIGGSWVEHDTNIPNGESLIRQFLLGQHFFEKEFGVRCRTFWLPDTFGYSSQIPQICRLCGMDRFLTQKLSWNNINSFPTSTFNWVALDGSQVICHMPPANTYTADTNVNDVLHSIDQHKNLVNDQAGLLVFGIGDGGGGPTPEMLEKLRRCKGIANTVGYLPNVKLGNTVDEFFDGILKRTNAGQTLPSWNGELYFEFHRGTYTTQAELKKLMRKVEIALHDAEYVSTLASIFSKDYSYPKESLQDLWRDTLLCQFHDVLPGSCIEMVYKDAIPIMSKVLKNTEALLWQAIEQLGFKKASSSDNKEQLCLLNTLPWNVRGVITETEENKLVYFESCDGKGILTAAHTSLKHPAAAYQKDDNFILVNDHLRVTIAPNGLILSLFDLHKEREILDLKSGKNHAGANQYVLFEDTPLSWQAWDTEVFSLEKYEVLDKGKVSIKESGPLRASVVVDIPISELSHMKATISLEGYNDCSEFTGVNFTCEVDWHESCKFLKVEFPVDIHSEFASYETQFGITKRPTHYNTSWDVAKFEVCHQKFADYSDFTYGVSVLNDCKYGFSTHGNLMRLSLLRSPKQPDAHADMGKHTIRYAVYPHSKPLDSSTVRAAHKFNSNFRLLTRASDTANLDIFDAFQLVGEPNVILSHIKMAEKGKSIILRVYESLGGKSRARLVIKSLTVASVTKCNGLEEDLEELCTLKSNDYYEVPIELRAFEIATFKVNL
# notes: S. pombe alpha-mannosidase Ams1 (SPAC513.05), full length; the first methionine is removed in vivo, T2 is the most N-terminal residue in the density map; residues 2-1077 are in the model; written as a molecule of its own for the pair; also called Ams1_1; Ams1_3; source: S. pombe, Pnmt1 promoter, purified (GFP-Trap beads, released by 3C protease)
# Tests used:
# [1] = target: B1; experiment: cryo-EM structure; Ams1-linker-Nbr1(53-180)-MBP fusion protein purified from S. pombe; 2.4 Å, D2 symmetry; details: both partners purified
# [2] = target: the molecule itself; experiment: as above
stoichiometry N [1],Binder,stoichiometry N [2]
4 Nbr1-ZZ1 molecules per Ams1 tetramer,"Nbr1(53-180) of the Ams1-Nbr1 fusion protein (domain or fragment, S. pombe, UniProt Q9P792 53-180, looked up, S. pombe Nbr1 residues 53-180 (ZZ1 and ZZ2); residues 59-108 are in the model; written as a molecule of its own for the pair; also called Nbr1-ZZ1; ZZ1; source: S. pombe, Pnmt1 promoter, purified (GFP-Trap beads, released by 3C protease); not shown: MBP, C-terminal, kept; GFP, C-terminal, cleaved) PTLRSSSVACNTCLKIIRNDSFHCTKCFDFDVCRDCYAKQAFLHPCPKPHFVLVRSSIPSVASLTCSVNSMSVSPQSNFMYAICDHCEQPIHNVRYKCSVCDDYDICESCLTDNSHSNTHAFVRITKA",–
–,B1,4
